Numbering of substitutions follows the chain as printed. Numbers in names are those of the source. Where “and” joins values, the source holds several entries; their conditions need not be identical. Identical values can stand only once.
Experiments:
[1] = biological target: T1, untagged β′-COP residues 1–604 (yeast (S. cerevisiae), UniProt P41811 1-604); test: ITC
T1 sequence (looked up): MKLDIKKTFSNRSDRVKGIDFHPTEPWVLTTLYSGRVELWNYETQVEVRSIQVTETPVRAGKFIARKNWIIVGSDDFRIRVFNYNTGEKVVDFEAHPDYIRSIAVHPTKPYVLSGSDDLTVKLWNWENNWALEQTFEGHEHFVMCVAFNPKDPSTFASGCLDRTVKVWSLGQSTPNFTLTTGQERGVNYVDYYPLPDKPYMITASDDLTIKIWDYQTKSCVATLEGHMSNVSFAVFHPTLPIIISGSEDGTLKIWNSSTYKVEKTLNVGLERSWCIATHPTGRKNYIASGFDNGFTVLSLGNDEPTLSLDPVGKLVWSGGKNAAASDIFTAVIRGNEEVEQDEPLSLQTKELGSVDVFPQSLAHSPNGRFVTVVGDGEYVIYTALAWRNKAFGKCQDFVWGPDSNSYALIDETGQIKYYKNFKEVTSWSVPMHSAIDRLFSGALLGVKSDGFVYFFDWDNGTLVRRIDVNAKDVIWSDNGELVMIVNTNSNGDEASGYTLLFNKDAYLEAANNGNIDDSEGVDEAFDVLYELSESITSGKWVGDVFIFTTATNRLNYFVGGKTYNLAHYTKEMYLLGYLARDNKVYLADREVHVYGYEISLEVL

[2] = biological target: T2, N-terminal β′-COP propeller (residues 1–304), untagged (yeast (S. cerevisiae), UniProt P41811 1-304); test: ITC
T2 sequence (looked up): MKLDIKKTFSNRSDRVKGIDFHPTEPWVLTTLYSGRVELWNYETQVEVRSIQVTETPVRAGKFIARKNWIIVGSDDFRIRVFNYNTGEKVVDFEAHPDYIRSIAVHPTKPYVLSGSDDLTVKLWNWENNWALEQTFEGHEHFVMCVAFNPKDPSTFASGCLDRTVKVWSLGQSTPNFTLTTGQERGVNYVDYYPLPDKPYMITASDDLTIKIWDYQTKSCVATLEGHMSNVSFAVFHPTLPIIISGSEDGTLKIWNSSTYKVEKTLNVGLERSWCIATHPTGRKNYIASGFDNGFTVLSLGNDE

[3] = biological target: T3, β′-COP residues 1–604 with a C-terminal GST tag (yeast (S. cerevisiae), UniProt P41811 1-604); test: pull-down
T3 sequence (looked up): T1 sequence (looked up)

[4] = biological target: T4, β′604-H6 (yeast (S. cerevisiae), UniProt P41811 1-604); test: pull-down
T4 sequence (looked up): T1 sequence (looked up)

[5] = biological target: T5, β′-COP D98A/D117A, residues 1–604, untagged (yeast (S. cerevisiae), UniProt P41811 1-604, D98A | D117A); test: ITC
T5 sequence (looked up): T1 sequence (looked up) with D98A, D117A

[6] = biological target: T6, mutant β′-COP (D437A/D450A), residues 1–604, untagged (yeast (S. cerevisiae), UniProt P41811 1-604, D437A | D450A); test: ITC
T6 sequence (looked up): T1 sequence (looked up) with D437A, D450A

B1: Glo3 residues 220–290, untagged (domain or fragment, yeast (S. cerevisiae), UniProt P38682 220-290, looked up)
chain: TASRKKPVLNSQDKKKHSILSSSRKPTRLTAKKVDKSQAEDLFDQFKKEAQQEKEDEFTNSSSSTKIRQND
binding result [1]: binds

B2: untagged Glo3 BoCCS fragment (residues 230–300) (domain or fragment, yeast (S. cerevisiae), UniProt P38682 230-300, looked up)
chain: SQDKKKHSILSSSRKPTRLTAKKVDKSQAEDLFDQFKKEAQQEKEDEFTNSSSSTKIRQNDYDSQFMNNSK
Kd [1]: ~1 µM | stoichiometry N [1]: 1 | Kd [2]: < 300 µM

B3: full-length Glo3-H8 (natural protein)
chain: not shown
binding result [3]: binds

B4: GST-BoCCS, Glo3 residues 208–383 (domain or fragment, yeast (S. cerevisiae), UniProt P38682 208-383, looked up)
chain: KTTVTKTRSSILTASRKKPVLNSQDKKKHSILSSSRKPTRLTAKKVDKSQAEDLFDQFKKEAQQEKEDEFTNSSSSTKIRQNDYDSQFMNNSKGNNNNSIDDINTQPDEFNDFLNDTSNSFDTTRKEQQDTLTPKFAKLGFGMTMNDANDLAKQQKESQKIAQGPRYTGRIAERYG
binding result [4]: binds

B5: Glo3 residues 230–270, untagged (domain or fragment, yeast (S. cerevisiae), UniProt P38682 230-270, looked up)
chain: SQDKKKHSILSSSRKPTRLTAKKVDKSQAEDLFDQFKKEAQ
binding result [1]: binds

B6: untagged Glo3 residues 230–290 (domain or fragment, yeast (S. cerevisiae), UniProt P38682 230-290, looked up)
chain: SQDKKKHSILSSSRKPTRLTAKKVDKSQAEDLFDQFKKEAQQEKEDEFTNSSSSTKIRQND
Kd [1]: 0.6 µM and 0.8 to 6 µM | stoichiometry N [1]: 1 | binding result [5]: binds | Kd [6]: 18 µM

B7: Glo3 (residues 230–290) K233E (domain or fragment, yeast (S. cerevisiae), UniProt P38682 230-290, looked up)
chain: B6 chain with K4E
Kd [1]: ~12 µM

B8: Glo3 (residues 230–290) K251E/K252E/K255E (domain or fragment, yeast (S. cerevisiae), UniProt P38682 230-290, looked up)
chain: B6 chain with K22E, K23E, K26E
Kd [1]: ~12 µM

B9: Glo3 (residues 230–290) K233E/K234E/K235E (domain or fragment, yeast (S. cerevisiae), UniProt P38682 230-290, looked up)
chain: B6 chain with K4E, K5E, K6E
Kd [1]: < 300 µM

Source: publication PMC9960064 (The Journal of Cell Biology, 2023)
